# Assay results taken from article doi:10.1101/2020.10.28.357137.
# Molecular target: SARS-CoV-2 Spike S2 protein fused to the pilot peptide CilPP, on S-EVs (SARS-CoV-2)
# Assay: non-reducing SDS-PAGE and Western blot
substance,measurement,value
"SARS-CoV-2 Spike S2 protein fused to the pilot peptide CilPP, on S-EVs (domain or fragment)",stoichiometry N,3
